{"source": "IntAct's records for PubMed 11583623", "parents": {"B1": {"name": "Serine protease HTRA2, mitochondrial (Homo sapiens), O43464 (parent)", "chain": "MAAPRAGRGAGWSLRAWRALGGIRWGRRPRLTPDLRALLTSGTSDPRARVTYGTPSLWARLSVGVTEPRACLTSGTPGPRAQLTAVTPDTRTREASENSGTRSRAWLAVALGAGGAVLLLLWGGGRGPPAVLAAVPSPPPASPRSQYNFIADVVEKTAPAVVYIEILDRHPFLGREVPISNGSGFVVAADGLIVTNAHVVADRRRVRVRLLSGDTYEAVVTAVDPVADIATLRIQTKEPLPTLPLGRSADVRQGEFVVAMGSPFALQNTITSGIVSSAQRPARDLGLPQTNVEYIQTDAAIDFGNSGGPLVNLDGEVIGVNTMKVTAGISFAIPSDRLREFLHRGEKKNSSSGISGSQRRYIGVMMLTLSPSILAELQLREPSFPDVQHGVLIHKVILGSPAHRAGLRPGDVILAIGEQMVQNAEDVYEAVRTQSQLAVQIRRGRETLTLYVTPEVTE"}}}
{"variants_of": "B1", "conditions": "with xiap_human XIAP"}
{"variant": "A134M", "effect of a mutation on the interaction": "disrupting interaction"}
